{"source": "paper PMC3575409", "about": "“Identification of a Novel Protein-Protein Interaction Motif Mediating Interaction of GPCR-Associated Sorting Proteins with G Protein-Coupled Receptors” (PLoS ONE, 2013)", "key": {"GST-fused ADRB1 C-tail": {"system": "GST-fused ADRB1 C-tail", "experiment": "GST-pull down, ADRB1 C-tail", "type": "binding", "settings": "percent of full-length GASP-1 interaction; three independent experiments", "procedure,_shortened": "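Radiolabelled GASPs ([35S]-Met, coupled transcription/translation) were pulled down by bead-immobilized GST-receptor C-tails, 1 h, 4°C, in 20 mM Tris-HCl pH 7.4, 150 mM NaCl, 1% Triton X-100, 10% glycerol. After five washes, retained GASP was imaged by phosphorimager; values are means of ≥3 experiments.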"}, "[1]": {"system": "GFP-tagged ADRB2 in HEK293 cells", "experiment": "Co-immunoprecipitation, ADRB2", "type": "cell-based", "settings": "48 h expression, anti-GFP immunoprecipitation", "description": "(§1) HEK293 cells stably expressing N-terminal GFP-tagged ADRB1, ADRB2, CALCR and M1 or MyrPalm-mYFP were transfected with pcDNA3.1 containing the sequence for a central domain of GASP-1 (AA 380 to 1073) using JetPEI reagent (polyplus transfection) according to the instructions from the manufacturer. After 48 h of expression, cells were washed twice with PBS and lysed in a buffer containing 10 mM Tris-HCl, pH 7.4, 150 mM NaCl, 25 mM KCl, 0.3% Triton X-100 and cOmplete protease inhibitors (Roche) for 1 h at 4°C under agitation. 500 µg of cleared lysates were incubated with 1 µg of a mouse monoclonal anti-GFP antibody (Invitrogen) overnight at 4°C, followed by an incubation with 40 µl of protein A-Sepharose beads for an additional 2 h at 4°C. Beads were then washed five times in lysis buffer and precipitates were resolved on an 8% gel by SDS–PAGE and electrotransferred to immobilon-P membranes (Millipore) in 50 mM Tris-boric acid for 1 h at 300 mA. Membranes were blocked with 5% non-fat powder milk in TBS-Tween (50 mM Tris-HCl pH 8, 150 mM NaCl, 0.4% Tween-20) for 1 h at room temperature. […] For immunodetection of GASP or GFP-tagged receptors directly from cell lysates, 10 µg of proteins were loaded on SDS gels and analyzed following the procedure described above. Finally, membranes were washed in TBS-Tween and detected by chemiluminescence (ECL prime, GE Healthcare). […]"}, "[2]": {"system": "MyrPalm-mYFP in HEK293 cells", "experiment": "Co-immunoprecipitation, MyrPalm-mYFP (negative control)", "type": "cell-based", "settings": "48 h expression, anti-GFP immunoprecipitation", "description": "as §1"}}}
{"molecule": "central domain of GASP-1: central portion of GASP-1 (AA 380 to 1073) that contains 19 GASP motif (protein, left off: GST, N-terminal, kept, central portion of GASP-1 (AA 380 to 1073) that contains 19 GASP motif) MTKEEAKTKARARAKQEARSEEEALIGTWFWATDESSMADEASIESSLQVEDESIIGSWFWTEEEASMGTGASSKSRPRTDGERIGDSLFGAREKTSMKTGAEATSESILAADDEQVIIGSWFWAGEEVNQEAEEETIFGSWFWVIDAASVESGVGVSCESRTRSEEEEVIGPWFWSGEQVDIEAGIGEEARPGAEEETIFGSWFWAENQTYMDCRAETSCDTMQGAEEEEPIIGSWFWTRVEACVEGDVNSKSSLEDKEEAMIPCFGAKEEVSMKHGTGVRCRFMAGAEETNNKSCFWAEKEPCMYPAGGGSWKSRPEEEEDIVNSWFWSRKYTKPEAIIGSWLWATEESNIDGTGEKAKLLTEEETIINSWFWKEDEAISEATDREESRPEAEEGDIIGSWFWAGEEDRLEPAAETREEDRLAAEKEGIVGSWFGAREETIRREAGSCSKSSPKAEEEEVIIGSWFWEEEASPEAVAGVGFESKPGTEEEEITVGSWFWPEEEASIQAGSQAVEEMESETEEETIFGSWFWDGKEVSEEAGPCCVSKPEDDEEMIVESWFWSRDKAIKETGTVATCESKPENEEGAIVGSWFEAEDEVDNRTDNGSNCGSRTLADEDEAIVGSWFWAGDEAHFESNPSPVFRAICRSTCSVEQEPDPSRRPQSWEEVTVQFKPGPWGRVGFPSISPFRFPKE", "values": [{"measurement": "interaction with ADRB1 C-tail relative to full-length GASP-1", "setting": "GST-fused ADRB1 C-tail", "value": "around 70%"}, {"measurement": "co-immunoprecipitation with ADRB2", "setting": "[1]", "value": "co-immunoprecipitated"}, {"measurement": "co-immunoprecipitation with MyrPalm-mYFP", "setting": "[2]", "value": "no co-immunoprecipation was observed"}]}
